Experimental data taken from patent publication US8716437B2 (priority 2007, dated 2014).
“And” between values parts separate entries of the source, which are not always exact repeats. Identical values can stand only once.

Experiments:
[1] = biological target: T1, Kv1.1 (Rattus norvegicus, UniProt P10499); test: Two electrode voltage clamp, Xenopus oocytes, Kv1.1; type: cell-based
T1 construct: expressed in transfected cells; host or cells: Xenopus laevis oocytes (cRNA injection)
Description: (§1) To examine the effect of mokatoxin-1 on activity of potassium ion channels, cDNA encoding Rattus Kv1.1 (NCBI accession number NM_173095), Rattus Kv1.2 (NM_012970), Homo Kv1.3 (NM_002232), or Mus BK (NM_010610) were subcloned into oocyte expression vectors based on PCR3.1 and pGEM. cRNA synthesis was performed with T7 polymerase and the mMessageMachine Kit (Ambion, Austin, Tex.) according to manufacturers instructions. cRNA concentrations were determined spectroscopically. For two electrode voltage clamp recordings oocytes were extracted from Xenopus laevis and defoliculated with Collagenase Type 2 (Worthington, Lakewood, N.J.). Oocytes were maintained in ND91 solution containing 2 mM KCl, 91 mM NaCl, 1 mM MgCl2, 1.8 mM CaCl2, and 5 mM HEPES, pH 7.5, supplemented with 1% Penicillin/Streptomycin (Cellgro, Hemdon, Va.) and 0.1% Gentamycin sulfate (Gibco, Grand Island, N.Y.)) at 16° C. Stage V and VI oocytes were injected with 8 pg to 4 ng cRNA, and currents recorded 1 to 4 days later.
(§2) For dose-response measurements of toxin block of Kv1.1, Kv1,2, or Kv1.3 peak currents were recorded during a 500 ms step to 0 mV from a holding voltage of −100 mV, followed by a 200 ms step to −135 mV every 30 s. To determine the kinetics of toxin block oocytes were held at −100 mV and stepped to the test voltage of 0 mV for 100 ms followed by a 200 ms duration step to −135 mV every 2 s. BK currents were recorded during a 50 ms step to +60 mV from a holding voltage of −80 mV, followed by a 40 ms step to −100 mV every 3 s. The perfusion solution contained 2 mM KCl, 96 mM NaCl, 1 mM MgCl2, 1.8 mM CaCl2, 5 mM HEPES, pH 7.5 and 0.1% fatty acid ultra-free BSA fraction V (Roche Diagnostics Corporation, Indianapolis, Ind.). Data acquisition and processing was performed with an oocyte clamp OC-725B (Warner Instruments Corporation, Hamden, Conn.), pCLAMP (Axon, Sunnyvale, Calif.), IGOR Pro (WaveMetrics, Lake Oswego, Oreg.), and Origin6.1 (OriginLab Corporation, Northampton, Mass.) softwares. The equilibrium dissociation rates (KD) for block of Kv1.1, Kv1.2, and Kv1.3 by mokatoxin-1 were determined by fitting the dose-response data and kon and koff were calculated as described by Goldstein and Miller, 1993 (Biophys J. 1993 65 (4):1613-1619).

[2] = test system: guinea pig ileum; conditions: J Pharmacol Exp Ther. 1999; cited from earlier work
[3] = biological target: T2, Kv1.2 (Rattus norvegicus, UniProt P63142); test: Two electrode voltage clamp, Xenopus oocytes, Kv1.2; type: cell-based
T2 construct: expressed in transfected cells; host or cells: Xenopus laevis oocytes (cRNA injection)
Description: as §1, §2

[4] = biological target: T3, BK (Mus musculus, UniProt Q08460); test: Two electrode voltage clamp, Xenopus oocytes, BK; type: cell-based
T3 construct: expressed in transfected cells; host or cells: Xenopus laevis oocytes (cRNA injection)
Description: as §1, §2

[5] = biological target: T4, Kv1.3 (Homo sapiens, UniProt P22001); test: Two electrode voltage clamp, Xenopus oocytes, Kv1.3; type: cell-based; set-up: expressed in transfected cells; host or cells: Xenopus laevis oocytes (cRNA injection)
Text: Thereafter, MK-1 was synthesized. […] The blocking of […] by MK-1 is represented by filled circles; the blocking of Kv1.2 by MK-1 is represented by filled diamonds; and the blocking of Kv1.1 by MK-1 is represented by filled triangles.
as §1, §2

[6] = biological target: Kv1.3 K+ channel, wild-type, species not stated
[7] = biological target: Kv1.3 K+ channel, wild-type, species not stated; remark: listed apart in the source
[8] = biological target: Kv1.3 K+ channel, wild-type, species not stated; test: one round of panning of KTX and nonspecific phages on cells expressing Kv1.3
[9] = biological target: Kv1.3 K+ channel, wild-type, species not stated; remark: listed apart in the source
[10] = biological target: Kv1.3 K+ channel, wild-type, species not stated; test: phage panning on COS cells
[11] = biological target: KcsA carrying a segment of the Kv1.3 pore loop (KcsA-1.3)
[12] = biological target: Kv1.3 K+ channel, wild-type, species not stated; remark: listed apart in the source
[13] = biological target: Kv1.3 K+ channel, wild-type, species not stated; test: phage panning on HEK cells
[14] = biological target: KcsA carrying a segment of the Kv1.3 pore loop (KcsA-1.3); remark: listed apart in the source
[15] = biological target: KcsA carrying a segment of the Kv1.3 pore loop (KcsA-1.3); test: panning of a 1:99 mixture of Shk and Camel VHH phages on KcsA-1.3, n = 17-20
[16] = biological target: Rattus Kv1.1 (Rattus) (UniProt P10499)
[17] = biological target: Rattus Kv1.2 (Rattus) (UniProt P63142)
[18] = biological target: human Kv1.3 (Homo) (UniProt P22001)
[19] = biological target: Mus BK (mouse big conductance calcium-activated K channel) (Mus) (UniProt Q08460)
[20] = biological target: human Kv1.3 (Homo) (UniProt P22001); remark: listed apart in the source
[21] = biological target: Kv1.2 K+ channel, species not stated
[22] = biological target: BK channel, species not stated
[23] = biological target: Kv1.3 K+ channel, wild-type, species not stated; remark: listed apart in the source
[24] = biological target: Kv1.1 K+ channel, species not stated
[25] = biological target: KcsA carrying a segment of the Kv1.3 pore loop (KcsA-1.3); test: library panning on immobilised KcsA-1.3
[26] = biological target: KcsA carrying a segment of the Kv1.3 pore loop (KcsA-1.3); remark: listed apart in the source
[27] = biological target: T4, Kv1.3; test: Whole-cell patch-clamp of Kv1.3 currents in HEK293 cells, toxin-phage applied; type: cell-based; set-up: expressed in transfected cells; host or cells: HEK (HEK293) and COS cells; conditions: 0.1 nM toxin-displaying phage
Description: […] […] Plasmids were transfected into cells with Lipofectamine 2000 (Invitrogen) according to the manufacturer's instructions. Experiments were performed at 24 hr. Whole-cell patch-clamp was performed using an Axopatch 200B amplifier and pCLAMP software (Molecular Devices, Union City, Calif.) at filter and sampling frequencies of 5 and 25 kHz respectively. Kv1.3 currents were evoked by 250 ms test pulses to 50 mV from −80 mV with a 5 second interpulse interval and studied in a bath solution comprising in mM: 1.3 CaCl2, 0.5 MgCl2, 0.4 MgSO4, 3.56 KCl, 0.44 KH2PO4, 139.7 NaCl, 0.34 Na2HPO4, 5.5 glucose, 10 HEPES adjusted to pH 7.4 with NaOH. […] Electrodes were coated with Sigmacote (Sigma) prior to use.
Electrophysiological recordings were performed with mokatoxin—0422 to confirm blocking of Kv1.3 channels. […] Plasmids were transfected into cells with Lipofectamine 2000 (Invitrogen) according to the manufacturer's instructions. Experiments were performed at 24 hrs. Whole-cell patch-clamp was performed using an Axopatch 200B amplifier and pCLAMP software (Molecular Devices, Union City, Calif.) at filter and sampling frequencies of 5 and 25 kHz respectively. […]

[28] = test system: vector transfected cells; test: Phage panning on vector transfected cells (CONTROL); type: binding, human; conditions: one round of panning; calculated input 5:95%
Description: Following incubation of the cells with the phages, cells were subjected to wash to remove the unbound/weakly bound phages. The remaining bound phages were eluted from the cells and transformed into XL1 E. coli, and plated onto LB plates with antibiotic selecting for the phagemids. The following day, 19-20 colonies of transformed XL1 were randomly selected and genotyped to establish the relative ratio (i.e., its departure from the calculated initial input of 5:95%) of the two different phage species, before and after the panning.

[29] = biological target: T4, Kv1.3; test: Phage panning on live cells (HEK, COS) expressing Kv1.3 channels; type: binding; set-up: expressed in transfected cells; host or cells: HEK (HEK293) and COS cells
Text: In another example, receptors may be expressed in cells. For example, cells may be stably or transiently transfected with one or more receptors can be utilized as expressed in native tissues (Clackson and Lowman, Phage display. Oxford University Press, 2004; Barbas et al., Phage display. A laboratory manual. Cold Spring Harbor Laboratory Press, 2001; Sambrook et al., Molecular Cloning: A Laboratory Manual. Vols 1-3. Cold Spring Harbor Laboratory Press, 1989). In one example, HEK (mammalian human embryonic kidney) and COS cells expressing wild-type Kv1.3 or Kv1.3-PDZ domain chimera were employed, the latter target allowing a “double” panning (e.g., as a control or to enhance binding affinity) using phages expressing kaliotoxin-1 and/or PDZ-binder domain.
Panning may be performed by the binding of ligands to the receptors, followed by washes and ligand recovery. In one example, panning is performed according to standard methods of phage display (Clackson and Lowman, Phage display. Oxford University Press, 2004; Barbas et al., Phage display. A laboratory manual. Cold Spring Harbor Laboratory Press, 2001). Panning may be repeated until the desired enrichment is achieved. In addition, libraries can be pre-depleted on surfaces or cells that contain no receptors or on a receptor where the putative ligand receptor domain may be directly or indirectly altered. Additionally, any and all conditions of panning may be varied, altered or changed to achieve optimal results, such as the isolation of a specific ligand. Panning variations include, but are not limited to, the presence of competing ligand(s), presence of excess target(s), length and temperature of binding, pre-absorption of the ligand library on one or more different receptor(s) or cells or surfaces, composition of binding solution (e.g., ionic strength), stringency of washing, and recovery procedures. Phages recovered from panning may be processed for further rounds of panning, functional analysis, and/or sequencing/genotyping to deduce the resulting ligands' amino acid sequence or biological properties (Clackson and Lowman, Phage display. Oxford University Press, 2004; Barbas et al., Phage display. A laboratory manual. Cold Spring Harbor Laboratory Press, 2001).
5×10^11 phagemids were added to the cell cultures in “B.”
A library of KTX-like ligands, with a calculated diversity of greater than 11,000, was created de novo. The library comprised approximately 8% KTX-like ligands and 92% non-KTX-like ligands. The library of ligands was screened on Kv1.3 receptors expressed in HEK and COS cells.
Transfection efficiency was monitored with cotransfection of gene encoding for the green fluorescence protein (GFP) and observing the fluorescence after 1-2 days following transfection.
KTX and mokatoxin-1 are Kv1.3 specific scorpion toxins. […] Following incubation of the cells with the phages, cells were subjected to wash to remove the unbound/weakly bound phages. The remaining bound phages were eluted from the cells and transformed into XL1 E. coli, and plated onto LB plates with antibiotic selecting for the phagemids.

[30] = one round of panning, calculated input 5:95%

T4 sequence (P22001 whole entry): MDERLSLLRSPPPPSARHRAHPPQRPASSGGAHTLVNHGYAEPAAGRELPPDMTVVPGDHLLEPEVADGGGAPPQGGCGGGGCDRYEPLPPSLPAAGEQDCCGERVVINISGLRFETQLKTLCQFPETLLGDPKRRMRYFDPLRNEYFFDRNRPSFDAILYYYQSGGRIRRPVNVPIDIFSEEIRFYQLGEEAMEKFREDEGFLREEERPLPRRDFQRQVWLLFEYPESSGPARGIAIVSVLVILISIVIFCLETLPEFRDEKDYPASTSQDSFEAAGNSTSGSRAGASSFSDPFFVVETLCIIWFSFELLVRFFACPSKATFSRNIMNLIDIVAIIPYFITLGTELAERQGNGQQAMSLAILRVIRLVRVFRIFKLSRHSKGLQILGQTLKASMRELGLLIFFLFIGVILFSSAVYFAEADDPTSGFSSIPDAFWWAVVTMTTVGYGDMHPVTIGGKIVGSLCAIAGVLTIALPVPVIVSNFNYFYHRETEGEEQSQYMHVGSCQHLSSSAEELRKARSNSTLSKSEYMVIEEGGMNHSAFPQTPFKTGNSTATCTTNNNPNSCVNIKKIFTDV
T1 sequence (P10499 whole entry): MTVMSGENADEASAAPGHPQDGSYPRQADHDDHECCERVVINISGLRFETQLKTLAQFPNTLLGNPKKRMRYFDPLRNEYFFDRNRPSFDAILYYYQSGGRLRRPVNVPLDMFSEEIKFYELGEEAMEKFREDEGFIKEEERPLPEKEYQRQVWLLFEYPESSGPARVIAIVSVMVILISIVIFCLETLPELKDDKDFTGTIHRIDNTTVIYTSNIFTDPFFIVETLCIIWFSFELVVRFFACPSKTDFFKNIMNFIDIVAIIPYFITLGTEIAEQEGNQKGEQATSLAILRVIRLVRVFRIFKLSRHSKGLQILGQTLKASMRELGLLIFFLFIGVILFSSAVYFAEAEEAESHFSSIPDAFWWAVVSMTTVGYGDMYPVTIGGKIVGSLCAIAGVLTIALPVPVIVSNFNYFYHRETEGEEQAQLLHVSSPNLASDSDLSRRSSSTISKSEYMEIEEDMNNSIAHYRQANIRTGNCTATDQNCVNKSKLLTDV
T2 sequence (P63142 whole entry): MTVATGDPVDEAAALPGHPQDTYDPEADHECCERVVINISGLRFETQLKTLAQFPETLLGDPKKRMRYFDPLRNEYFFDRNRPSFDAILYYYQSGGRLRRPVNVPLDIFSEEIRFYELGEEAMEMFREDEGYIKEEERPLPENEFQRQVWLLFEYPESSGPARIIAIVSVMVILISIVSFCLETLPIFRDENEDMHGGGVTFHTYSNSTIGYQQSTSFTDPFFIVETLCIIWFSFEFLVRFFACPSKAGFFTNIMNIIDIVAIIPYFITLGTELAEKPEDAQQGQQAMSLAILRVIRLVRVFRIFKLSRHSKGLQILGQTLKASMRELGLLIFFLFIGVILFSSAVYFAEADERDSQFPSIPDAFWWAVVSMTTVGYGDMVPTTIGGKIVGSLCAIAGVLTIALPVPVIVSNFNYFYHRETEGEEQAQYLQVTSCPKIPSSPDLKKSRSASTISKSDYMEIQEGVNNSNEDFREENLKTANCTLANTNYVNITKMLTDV
T3 sequence (Q08460 whole entry): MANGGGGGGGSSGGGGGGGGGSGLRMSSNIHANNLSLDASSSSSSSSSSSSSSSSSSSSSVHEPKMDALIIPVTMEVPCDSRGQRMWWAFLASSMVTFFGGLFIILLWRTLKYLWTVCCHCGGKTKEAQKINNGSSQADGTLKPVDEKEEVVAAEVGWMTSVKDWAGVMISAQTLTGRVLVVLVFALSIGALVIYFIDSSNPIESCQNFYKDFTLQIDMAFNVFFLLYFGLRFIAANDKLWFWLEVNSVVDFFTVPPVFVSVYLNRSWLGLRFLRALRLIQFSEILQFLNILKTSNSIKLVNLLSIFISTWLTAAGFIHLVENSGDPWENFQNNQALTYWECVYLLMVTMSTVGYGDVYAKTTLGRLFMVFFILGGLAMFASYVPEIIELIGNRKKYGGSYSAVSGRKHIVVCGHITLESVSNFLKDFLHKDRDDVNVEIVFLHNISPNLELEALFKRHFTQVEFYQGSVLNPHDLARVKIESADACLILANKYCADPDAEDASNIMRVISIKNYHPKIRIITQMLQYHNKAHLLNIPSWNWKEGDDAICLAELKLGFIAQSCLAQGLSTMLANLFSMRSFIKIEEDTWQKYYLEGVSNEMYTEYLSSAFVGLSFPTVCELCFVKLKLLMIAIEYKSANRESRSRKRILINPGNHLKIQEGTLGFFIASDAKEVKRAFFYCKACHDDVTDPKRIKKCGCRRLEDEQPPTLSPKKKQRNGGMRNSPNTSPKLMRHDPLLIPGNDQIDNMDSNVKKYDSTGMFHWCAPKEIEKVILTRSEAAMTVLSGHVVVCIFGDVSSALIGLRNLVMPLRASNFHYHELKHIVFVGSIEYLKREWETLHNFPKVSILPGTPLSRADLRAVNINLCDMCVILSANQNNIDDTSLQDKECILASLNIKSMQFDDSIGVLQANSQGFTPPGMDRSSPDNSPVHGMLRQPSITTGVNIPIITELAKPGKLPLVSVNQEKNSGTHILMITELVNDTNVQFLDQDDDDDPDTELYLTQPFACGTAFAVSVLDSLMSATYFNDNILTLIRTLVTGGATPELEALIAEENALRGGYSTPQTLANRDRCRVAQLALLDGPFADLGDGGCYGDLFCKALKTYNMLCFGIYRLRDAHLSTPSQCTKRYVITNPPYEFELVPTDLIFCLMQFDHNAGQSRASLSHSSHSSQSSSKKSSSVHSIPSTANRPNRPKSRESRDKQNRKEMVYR

Compound: CC[C@H](C)[C@@H]1NC(=O)[C@@H]2CSSC[C@@H]3NC(=O)[C@H](CCCCN)NC(=O)[C@H](CCCNC(=N)N)NC(=O)[C@H](CC(N)=O)NC(=O)[C@H](CCSC)NC(=O)[C@H](CSSC[C@H](NC(=O)[C@H](CO)NC(=O)[C@@H](NC(=O)[C@H](CC(N)=O)NC(=O)[C@@H](NC(=O)[C@@H]4CCCN4C(=O)[C@@H](NC(=O)CN)C(C)C)[C@@H](C)CC)C(C)C)C(=O)N[C@@H]([C@@H](C)O)C(=O)NCC(=O)N[C@@H](CO)C(=O)N4CCC[C@H]4C(=O)N[C@@H](CCC(N)=O)C(=O)N2)NC(=O)[C@H](CCCCN)NC(=O)CNC(=O)[C@H](Cc2ccccc2)NC(=O)[C@H](CCCNC(=N)N)NC(=O)[C@H](CCSC)NC(=O)CNC(=O)[C@H](C)NC(=O)[C@H](CC(=O)O)NC(=O)[C@H](CCCCN)NC(=O)[C@H](CSSC[C@@H](C(=O)N[C@H](C(=O)N2CCC[C@H]2C(=O)N[C@@H](CCCCN)C(=O)O)[C@@H](C)O)NC(=O)[C@H](Cc2c[nH]cn2)NC3=O)NC(=O)[C@@H]2CCCN2C(=O)[C@H](CCCCN)NC1=O [AgTX2, agitoxin-2]
- IC50 [1]: 0.04 nM
- ileum contractions [2]: contractions
- IC50 [3]: 26.8 nM
- IC50 [4]: ~1150 nM
- IC50 [5]: 0.004 nM

Compound: Kaliotoxin-1 phage (KTX-phage)
- OUTPUT KTX (%) [6]: 22% and 30% and 26%
- Kv1.3 current, whole-cell patch-clamp [7]: 35%
- Fold Enrichment [8]: 4.3 fold and 5.2 fold
- % of recovered phage, 2nd round [9]: 0%
- % of recovered phage, 3rd round [9]: 58%
- fold enrichment (Kv1.3 transfected against vector cells) [10]: 10 fold
- Output (% Ligands) [11]: 100%
- % of phage after the 2nd panning [12]: 40%
- fold enrichment (Kv1.3 transfected against vector cells) [13]: 20 fold
- Fold Enrichment [14]: 3.6 fold

Compound: Shk phage (sea anemone Stichodactyla helianthus ShK toxin on phage)
- % phages, OUTPUT [15]: 20%

Compound: mokatoxin-1 (peptide)
- Ki (block of channel current) [16]: > 1000 nM
- Ki (block of channel current) [17]: 620 nM
- Koff (block of channel current) [17]: 0.16 [s]^-1
- Kon (block of channel current) [17]: 260000 [M · s]^-1
- Ki (block of channel current) [18]: 1 nM
- Koff (block of channel current) [18]: 0.059 [s]^-1
- Kon (block of channel current) [18]: 3.6e+07 [M · s]^-1
- Ki (block of channel current) [19]: > 1000 nM
- IL-2, TNF-α and IFN-γ secretion by CD3/CD28 activated human T cells (ELISA) [20]: 50%
- approximate IC50 [21]: 680 nM
- approximate IC50 [22]: > 1000 nM
- approximate IC50 [23]: 3 nM
- approximate IC50 [24]: > 1000 nM

Compound: mokatoxin-1-phage
- % of the eluted phage after two rounds of panning [25]: 16.6%
- % of the phage isolated after two rounds of selection [26]: 60%
- % of phage after the 2nd panning [12]: 15%

Compound: mokatoxin-2
- block of Kv1.3 channels expressed in mammalian cells [27]: blocks Kv1.3 channels
- # of genotype (%), Control [28]: 5%
- # of genotype, Control [28]: 1
- share after the 2nd round of panning of the library on Kv1.3 cells ([29]; HEK, KTX scaffold combinatorial library, n=18): 11%
- # of genotype (%), Test [29, 30]: 90%
- # of genotype, Test [29, 30]: 18
